The experiment has as its target APOBEC3B (A3B) C-terminal domain (ctd)-Cas9n-Ugi (human | S. pyogenes | not stated).

B1: Epstein-Barr virus ribonucleotide reductase large subunit, BORF2 (natural protein)
chain: MATTSHVEHELLSKLIDELKVKANSDPEADVLAGRLLHRLKAESVTHTVAEYLEVFSDKFYDEEFFQMHRDELETRVSAFAQSPAYERIVSSGYLSALRYYDTYLYVGRSGKQESVQHFYMRLAGFCASTTCLYAGLRAALQRARPEIESDMEVFDYYFEHLTSQTVCCSTPFMRFAGVENSTLASCILTTPDLSSEWDVTQALYRHLGRYLFQRAGVGVGVTGAGQDGKHISLLMRMINSHVEYHNYGCKRPVSVAAYMEPWHSQIFKFLETKLPENHERCPGIFTGLFVPELFFKLFRDTPWSDWYLFDPKDAGDLERLYGEEFEREYYRLVTAGKFCGRVSIKSLMFSIVNCAVKAGSPFILLKEACNAHFWRDLQGEAMNAANLCAEVLQPSRKSVATCNLANICLPRCLVNAPLAVRAQRADTQGDELLLALPRLSVTLPGEGAVGDGFSLARLRDATQCATFVVACSILQGSPTYDSRDMASMGLGVQGLADVFADLGWQYTDPPSRSLNKEIFEHMYFTALCTSSLIGLHTRKIFPGFKQSKYAGGWFHWHDWAGTDLSIPREIWSRLSERIVRDGLFNSQFIALMPTSGCAQVTGCSDAFYPFYANASTKVTNKEEALRPNRSFWRHVRLDDREALNLVGGRVSCLPEALRQRYLRFQTAFDYNQEDLIQMSRDRAPFVDQSQSHSLFLREEDAARASTLANLLVRSYELGLKTIMYYCRIEKAADLGVMECKASAALSVPREEQNERSPAEQMPPRPMEPAQVAGPVDIMSKGPGEGPGGWCVPGGLEVCYKYRQLFSEDDLLETDGFTERACESCQ
Regarding B1, the inhibition of A3Bctd CBE editing of the chromosomally integrated TC reporter (eGFP) in 293T cells, flow cytometry, 72 h post-transfection was 4.9 fold.

Values taken from article PMC10611974.
